# Test results taken from the supplement of paper PMC10201428.
# ± gives the standard deviation of the averaged measurements.
# B1: library; a variant is named by its letters at N, in order (parent)
# chain: AATGTTGTTGATGCAACCATAAAGTGATATTTAATAATTATTTATAATCAGCAACTTAACCACAAAACAACCATATATTGATATNTCACAAAACAACCATAANTTGATATTTTTGTGAATCGAGTATTTCAGCAAAACTACTGCAGTAAGAA
# Legend:
# [1] = variants of: B1; assay: relative integration efficiency (T-LR orientation) vs wild-type transposon end (log2 (normalized fold change)); transposon end mutated: left end; higher = more efficient transposition; conditions: with VchCAST RNA-guided transposition machinery (E. coli BL21(DE3) host, lacZ target)
# In short: (§1)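 Barcode abundances in input plasmids and in genomic integration junctions were obtained by PCR amplification and Illumina sequencing. These came from E. coli BL21(DE3) co-transformed with a T7-driven effector plasmid and a pUC57 donor carrying 1549 left-end or 1849 right-end transposon variants, then plated with 0.1 mM IPTG at 37°C for 18 h. Relative integration efficiency is the output/input fold change, normalised to reference barcodes and log-transformed.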
# [2] = variants of: B1; assay: relative integration efficiency (T-RL orientation) vs wild-type transposon end (log2 (normalized fold change)); transposon end mutated: left end; higher = more efficient transposition; conditions: with VchCAST RNA-guided transposition machinery (E. coli BL21(DE3) host, lacZ target)
# In short: as §1
Variant,relative integration efficiency (log2) [1],relative integration efficiency (log2) [2]
CG C52G A53T A54T C55G,0.133 ± 0.24,0.0283 ± 0.2
CG G117C,-0.761 ± 0.33,-0.41 ± 0.12
CG G117T,-0.0744 ± 0.017,-0.0764 ± 0.036
CG G117A,-0.315 ± 0.5,-0.123 ± 0.016
CG T20A A21T A22T A23T,-0.732 ± 0.16,-0.758 ± 0.34
CG C49T,-0.164 ± 0.35,0.0612 ± 0.15
CG T6G G7T T8G T9G,< -10,-7.37 ± 0.95
CG T12A G13A,-0.256 ± 0.34,-0.294 ± 0.04
CG T12A G13C,0.233 ± 0.21,-0.107 ± 0.067
TG G24A T30A A70C T76A T84A C87A,0.298 ± 0.13,-0.172 ± 0.16
CG G117T A118C,0.251 ± 0.35,0.0866 ± 0.029
CG G13A T30A T31C T32A A77C T86G,-0.338 ± 0.55,-0.517 ± 0.16
CG G13T,-0.887 ± 0.83,0.0664 ± 0.041
CG G13C,-0.392 ± 0.57,0.0316 ± 0.11
CG G13A,0.397 ± 0.29,0.195 ± 0.069
CG C60G C61G A62T C63G,0.27 ± 0.29,-0.0479 ± 0.14
CG T12A G13A T32A A77C T86G,0.117 ± 0.45,-0.0481 ± 0.05
CG C60A C61A,0.547 ± 0.41,0.353 ± 0.049
CG C87A A88C C89A A90C,0.382 ± 0.34,0.292 ± 0.29
CG C98G A99T,-1.62 ± 0.4,-1.51 ± 0.56

Variant,relative integration efficiency (log2) [1],relative integration efficiency (log2) [2]
CG C94A A95C A96C C97A,-1.9 ± 0.51,-1.87 ± 0.78
CG C72T,-0.0498 ± 0.25,-0.0527 ± 0.2
CG C72A,-0.613 ± 1,-0.492 ± 0.48
CG C72G,-0.262 ± 0.52,-0.201 ± 0.43
CG C63G A64T A65T A66T,0.34 ± 0.24,0.217 ± 0.0048
CG T12A G13C C14G A15T,-0.874 ± 0.76,-0.341 ± 0.43
CG T6A,< -10,-6.68 ± 0.076
CG T6C,-1.5 ± 1,-2.65 ± 0.37
CG G117C A118T A119T T120A,0.101 ± 0.3,0.268 ± 0.02
CG C94G,-1.16 ± 0.81,-0.958 ± 0.57
CG C94T,-0.715 ± 0.59,-0.669 ± 0.41
CG C94A,-0.54 ± 0.48,-0.268 ± 0.25
CG T9A G10C,-2.248 ± 0.0027,-0.479 ± 0.16
CG C71G C72G,-1.67 ± 1.9,-1.32 ± 0.57
CG C97G C98G,-1.23 ± 0.91,-1.07 ± 0.5
CG C94G A95T A96T C97G,-1.95 ± 1.2,-0.731 ± 1
CG T5G T6G,< -10,
CG C71G C72G A73T T74A,-1.87 ± 0.61,-2.18 ± 0.97
CG G10C A11T,< -10,0.833 ± 0.19
CG G26T A27C,-0.945 ± 0.26,-1.68 ± 0.7

Variant,relative integration efficiency (log2) [1],relative integration efficiency (log2) [2]
CG C52T,0.154 ± 0.19,0.201 ± 0.14
CG C52A,0.484 ± 0.55,0.279 ± 0.017
CG C52G,0.484 ± 0.31,-0.00219 ± 0.15
CG G80T A81C T82G A83C,-2.93 ± 1.9,-2.64 ± 0.94
CG C94A A95C,-0.623 ± 0.98,-0.474 ± 0.4
CG C121A G122T A123C G124T T125G,0.905 ± 0.042,0.666 ± 0.12
CG C68G,-0.736 ± 0.69,-0.831 ± 0.36
CG C68T,-1.08 ± 0.81,-0.627 ± 0.41
CG C68A,-0.255 ± 0.47,-0.433 ± 0.32
CG C87A A88C,0.256 ± 0.18,-0.00605 ± 0.14
CG T5G T6G G7T T8G,< -10,-6.89 ± 0.7
CG G24C T25A,-0.543 ± 0.54,-0.605 ± 0.37
CG G7A,-0.532 ± 0.023,-0.156 ± 0.15
CG G7T,-4.09 ± 0.17,-2.59 ± 0.72
CG G7C,-0.0662 ± 0.49,-0.11 ± 0.25
CG G26T A27C T28G A29C,-1.37 ± 0.4,-1.9 ± 1.2
CG G10T A11C T12G G13T,-4.3 ± 0.89,-1.43 ± 0.49
CG C71A C72A,-1.63 ± 1.1,-1.05 ± 0.77
